The numbers were not newly measured in publication PMC2289845, which cites them from elsewhere.

In the data set the target is KIX KIX (UniProt P45481).
UniProt P45481, sequence (P45481 586-665): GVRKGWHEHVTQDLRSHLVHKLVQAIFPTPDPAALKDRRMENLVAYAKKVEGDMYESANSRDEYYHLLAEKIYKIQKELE

On to pKID KID (from UniProt P15337), for which the dissociation constant (Kd) is 1300 nM.
